Measurements: patent US20170002081A1 (TRANSGENE S A, published 2017)

What was measured:
[1] = target: T1, CSF-1R20-512-Fc (R&D Systems cat. 329-MR) (human, UniProt P07333 20-512); test: ELISA: coated human CSF1 1-444 or PBS; Fc-D1-D5 human CSF-1R 0.125 µg/mL; anti-human IgG-Fc-HRP
T1 construct: Bought; also called CSF-1R1-512:Fc; soluble human CSF-1R; not shown: Fc region of a human IgG1

[2] = target: T2, EGFR:Fc (human, UniProt P00533 25-645); test: Western blot, native conditions, 100 ng soluble receptor
T2 construct: also called soluble form of the EGFR fused to human IgG1 Fc (R&D Systems); Soluble EGFR; not shown: human IgG1 Fc
Source text: A soluble form of the EGFR fused to human IgG₁ Fc (R&D Systems) was used as a negative control.

[3] = target: T3, VEGFR1-Fc-6×his (R&D Systems cat. 321-FL-050) (human, UniProt P17948 27-758, limits assumed); test: ELISA, 300 ng coated receptor per well
T3 construct: extracellular domain; Bought; also called soluble VEGFR-1
Description: (§1) 13382) was also incubated with wells coated with receptor-human Fc fusion proteins Flt-3-Fc-, PDGFRβ-Fc, VEGFR2-Fc, VEGFR1-Fc, while PDGFRα- and SCFR-coated wells were incubated with respectively anti-PDGF-Rα (mouse IgG1, R&Dsystems cat. MAB322) and anti-SCF-R goat IgG (R&DSystems cat. AF332). […] Following revelation with tetramethylbenzidine (Sigma, cat. T8665) (0.1 mg/ml in 0.05 M sodium acetate, 0.05 M citric acid, H₂O₂ 1/7000), absorbance was measured at 450 nm and corrected by subtraction of absorbance at 540 nm using a spectrophotometer (Berthold, Tristar LB941).

[4] = target: T4, vascular endothelial growth factor receptor (VEGFR)2-Fc-6×his (R&D Systems cat. 357-KD/CF) (human, UniProt P35968 20-764, limits assumed); test: ELISA, 300 ng coated receptor per well
T4 construct: extracellular domain; Bought; also called soluble VEGFR-2
Description: as §1

[5] = target: T5, Flt-3-Fc-6×his (R&D Systems cat. 368-ST/CF) (human, UniProt P36888 27-543, limits assumed); test: ELISA, 300 ng coated receptor per well
T5 construct: extracellular domain; Bought; also called soluble Flt-3
Description: as §1

[6] = target: T6, PDGFRβ-Fc-6×his (R&D Systems cat. 385-PR/CF) (human, UniProt P09619 33-532, limits assumed); test: ELISA, 300 ng coated receptor per well
T6 construct: extracellular domain; Bought; also called soluble PDGFRβ
Description: as §1

[7] = target: T7, PDGFRα ECD (R&D Systems cat. 322-PR/CF) (UniProt P16234 24-528, limits assumed); test: ELISA, 300 ng coated receptor per well
T7 construct: extracellular domain; Bought; also called soluble PDGFRα
Description: as §1

[8] = target: T8, human SCFR ECD (R&D Systems cat. 332-SR/CF) (human, UniProt P10721 26-524); test: ELISA, 300 ng coated receptor per well
T8 construct: extracellular domain; Bought; also called SCFR (c-kit)
Description: as §1

[9] = target: T9, human CSF-1R, full length, on cells (human, UniProt P07333 20-972); test: displacement of 1.5 nM ^125I-H27K15 (competitor) on EL4-CSF-1R cells
T9 construct: also called cell-surface CSF-1R; B4-800-5 cells

[10] = target: T9, human CSF-1R, full length, on cells; test: displacement of 1.5 nM ^125I-H27K15 (competitor) on EL4-CSF-1R cells, Cheng-Prusoff
[11] = target: T10, pTG18036; test: ELISA: His-tagged construct captured from CHO supernatant on anti-His tag coated wells; biotinylated antibody; streptavidin-HRP
T10 construct: truncated mutant secreted by CHO cells; also called human D1 and D2 of CSF-1R, Histidine tag
T10 single secreted chain: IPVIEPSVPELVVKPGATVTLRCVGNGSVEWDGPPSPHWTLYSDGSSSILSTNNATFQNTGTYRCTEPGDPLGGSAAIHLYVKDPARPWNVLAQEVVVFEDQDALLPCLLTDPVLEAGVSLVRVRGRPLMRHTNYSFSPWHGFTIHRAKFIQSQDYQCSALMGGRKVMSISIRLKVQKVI
Description: (§2) In order to map the mAb binding sites on CSF-1R, truncated mutants of human CSF-1R and chimeras between human and murine D1-D3 CSF-1R fused to Histidine tags were constructed (see FIGS. 19 and 20 for details). These constructs were expressed as secreted proteins using CHO cells. Expression of constructs was checked by immunoblot analysis using an anti-His tag antibody for detection. All constructs were captured on ELISA plate by incubating CHO culture supernatant into wells coated with an Anti-His tag antibody. Antibodies were biotinylated using Biotin-NHS (Sigma ref B3295-10 MG). Biotinylated antibodies were added to each well and binding was detected with streptavidin-HRP.

[12] = target: T11, pTG17983; test: as above
T11 construct: secreted by CHO cells; also called human D1-D2-D3 of CSF-1R, Histidine tag
T11 single secreted chain: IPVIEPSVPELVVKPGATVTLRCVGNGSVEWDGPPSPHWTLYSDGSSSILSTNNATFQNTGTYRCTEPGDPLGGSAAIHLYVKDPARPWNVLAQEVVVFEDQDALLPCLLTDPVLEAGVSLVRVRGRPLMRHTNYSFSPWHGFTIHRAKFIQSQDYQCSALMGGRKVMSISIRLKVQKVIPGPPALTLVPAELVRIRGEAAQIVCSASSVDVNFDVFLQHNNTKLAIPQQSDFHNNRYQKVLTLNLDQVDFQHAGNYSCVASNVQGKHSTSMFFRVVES
Description: as §2

[13] = target: T12, construct pTG18000 (human and murine D1 subdomains combined, Histidine tag) (Homo sapiens (Human), UniProt P07333 21-298); test: as above
T12 chain: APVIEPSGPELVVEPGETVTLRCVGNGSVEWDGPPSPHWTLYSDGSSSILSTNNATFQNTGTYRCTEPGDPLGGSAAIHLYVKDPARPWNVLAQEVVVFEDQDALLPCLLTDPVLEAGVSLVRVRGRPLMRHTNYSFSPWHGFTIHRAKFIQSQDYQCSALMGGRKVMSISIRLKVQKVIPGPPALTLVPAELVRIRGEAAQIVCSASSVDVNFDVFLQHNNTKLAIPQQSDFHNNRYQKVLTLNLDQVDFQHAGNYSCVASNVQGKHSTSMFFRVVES
Description: as §2

T7 sequence (P16234 24-528 limits assumed): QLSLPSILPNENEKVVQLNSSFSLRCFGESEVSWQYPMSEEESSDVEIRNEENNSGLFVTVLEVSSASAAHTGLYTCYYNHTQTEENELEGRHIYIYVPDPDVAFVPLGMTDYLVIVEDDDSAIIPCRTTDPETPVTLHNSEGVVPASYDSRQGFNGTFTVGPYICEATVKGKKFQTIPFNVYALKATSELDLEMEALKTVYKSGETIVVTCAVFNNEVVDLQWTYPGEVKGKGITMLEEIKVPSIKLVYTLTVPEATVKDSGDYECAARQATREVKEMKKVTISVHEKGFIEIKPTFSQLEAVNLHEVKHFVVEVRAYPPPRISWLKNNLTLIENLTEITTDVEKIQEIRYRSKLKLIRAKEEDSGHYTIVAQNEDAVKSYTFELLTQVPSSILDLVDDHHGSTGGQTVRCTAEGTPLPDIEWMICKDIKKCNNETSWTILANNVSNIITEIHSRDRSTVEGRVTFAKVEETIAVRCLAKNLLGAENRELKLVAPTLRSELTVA
T6 sequence (P09619 33-532 limits assumed): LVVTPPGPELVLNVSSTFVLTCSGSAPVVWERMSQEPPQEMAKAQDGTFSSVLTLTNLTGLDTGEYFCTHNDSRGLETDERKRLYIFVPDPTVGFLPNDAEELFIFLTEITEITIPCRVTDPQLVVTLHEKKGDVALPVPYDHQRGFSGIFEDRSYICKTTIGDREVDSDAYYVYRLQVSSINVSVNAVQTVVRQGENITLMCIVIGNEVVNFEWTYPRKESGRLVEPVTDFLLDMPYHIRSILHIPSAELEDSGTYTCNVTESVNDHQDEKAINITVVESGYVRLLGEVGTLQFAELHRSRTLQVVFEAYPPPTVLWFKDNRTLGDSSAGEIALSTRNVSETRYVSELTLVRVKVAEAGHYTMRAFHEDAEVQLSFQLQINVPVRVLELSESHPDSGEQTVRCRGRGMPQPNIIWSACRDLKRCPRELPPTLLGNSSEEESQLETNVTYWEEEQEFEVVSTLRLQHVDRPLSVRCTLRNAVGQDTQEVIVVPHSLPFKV
T3 sequence (P17948 27-758 limits assumed): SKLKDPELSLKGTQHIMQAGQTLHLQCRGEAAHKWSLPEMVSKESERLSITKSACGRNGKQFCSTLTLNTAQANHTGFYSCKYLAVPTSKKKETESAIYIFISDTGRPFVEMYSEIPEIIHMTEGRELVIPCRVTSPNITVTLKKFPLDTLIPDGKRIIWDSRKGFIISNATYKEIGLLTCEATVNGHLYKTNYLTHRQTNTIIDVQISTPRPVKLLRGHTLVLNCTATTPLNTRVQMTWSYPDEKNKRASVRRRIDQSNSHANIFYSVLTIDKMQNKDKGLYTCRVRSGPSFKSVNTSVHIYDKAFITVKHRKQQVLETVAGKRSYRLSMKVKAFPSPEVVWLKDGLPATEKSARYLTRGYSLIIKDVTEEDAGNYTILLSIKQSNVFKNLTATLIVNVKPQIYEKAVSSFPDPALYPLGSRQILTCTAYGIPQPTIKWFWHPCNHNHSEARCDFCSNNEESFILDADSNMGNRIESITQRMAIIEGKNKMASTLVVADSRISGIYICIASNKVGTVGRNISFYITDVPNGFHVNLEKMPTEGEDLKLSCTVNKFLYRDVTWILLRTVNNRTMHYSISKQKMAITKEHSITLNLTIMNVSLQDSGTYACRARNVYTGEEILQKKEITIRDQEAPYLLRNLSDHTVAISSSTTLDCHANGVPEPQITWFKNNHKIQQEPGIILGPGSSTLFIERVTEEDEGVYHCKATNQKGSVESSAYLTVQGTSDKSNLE
T4 sequence (P35968 20-764 limits assumed): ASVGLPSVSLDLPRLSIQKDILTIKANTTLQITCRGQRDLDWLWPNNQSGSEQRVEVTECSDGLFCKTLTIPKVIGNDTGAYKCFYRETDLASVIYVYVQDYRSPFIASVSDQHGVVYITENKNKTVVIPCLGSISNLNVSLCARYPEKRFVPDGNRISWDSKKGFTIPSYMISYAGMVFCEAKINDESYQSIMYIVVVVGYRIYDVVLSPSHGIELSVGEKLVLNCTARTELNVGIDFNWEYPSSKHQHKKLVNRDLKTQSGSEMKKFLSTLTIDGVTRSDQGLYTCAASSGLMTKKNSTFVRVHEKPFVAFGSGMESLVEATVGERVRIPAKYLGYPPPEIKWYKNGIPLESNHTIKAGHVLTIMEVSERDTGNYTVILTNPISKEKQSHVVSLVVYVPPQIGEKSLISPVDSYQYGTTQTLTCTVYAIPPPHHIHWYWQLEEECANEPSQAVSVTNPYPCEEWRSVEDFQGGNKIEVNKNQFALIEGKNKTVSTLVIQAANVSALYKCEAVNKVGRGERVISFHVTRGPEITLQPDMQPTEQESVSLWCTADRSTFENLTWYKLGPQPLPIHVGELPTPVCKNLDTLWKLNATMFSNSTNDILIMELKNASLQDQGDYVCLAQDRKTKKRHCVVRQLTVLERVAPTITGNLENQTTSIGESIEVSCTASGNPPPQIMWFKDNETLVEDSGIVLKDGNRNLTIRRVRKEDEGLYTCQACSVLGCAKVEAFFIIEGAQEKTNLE

B1: human CSF1 1-444 (Geneart) (ligand)
chain: EEVSEYCSHMIGSGHLQSLQRLIDSQMETSCQITFEFVDQEQLKDPVCYLKKAFLLVQDIMEDTMRFRDNTPNAIAIVQLQELSLRLKSCFTKDYEEHDKACVRTFYETPLQLLEKVKNVFNETKNLLDKDWNIFSKNCNNSFAECSSQDVVTKPDCNCLYPKAIPSSDPASVSPHQPLAPSMAPVAGLTWEDSEGTEGSSLLPGEQPLHTVDPGSAKQAPPRSTCQSFEPPETPVVKDSTIGGSPQPRPSVGAFNPGMEDILDSAMGTNWVPEEASGEASEIPVPQGTELSPSRPGGGSMQTEPARPSNFLSASSPLPASAKGQQPADVTGTALPRVGPVRPTGQDWNHTPQKTDHPSALLRDPPEPGSPRISSLRPQGLSNPSTLSAQPQLSRSHSSGSVLPLGELEGRR
modifications: biotinylated with Biotin-NHS in the assay of
notes: also called biotinylated CSF-1
B1: binds [1].

B2: mAb CXIIG6 (antibody, mouse IgG2a, kappa)
heavy: EVKLEESGGGLVQPGGSMKLSCAASGFTFSDAWMDWVRQSPEMGLEWVAEIRSKANNHATFYAESVKGRFTISRDDSKSSVYLQMNSLRPEDTGIYYCTRVKVGFDNWGQGTTLTVSSAKTTAPSVYPLAPVCGDTTGSSVTLGCLVKGYFPEPVTLTWNSGSLSSGVHTFPAVLQSDLYTLSSSVTVTSSTWPSQSITCNVAHPASSTKVDKKIEPRGPTIKPCPPCKCPAPNLLGGPSVFIFPPKIKDVLMISLSPIVTCVVVDVSEDDPDVQISWFVNNVEVHTAQTQTHREDYNSTLRVVSALPIQHQDWMSGKEFKCKVNNKDLPAPIERTISKPKGSVRAPQVYVLPPPEEEMTKKQVTLTCMVTDFMPEDIYVEWTNNGKTELNYKNTEPVLDSDGSYFMYSKLRVEKKNWVERNSYSCSVVHEGLHNHHTTKSFSRTPGK
light: DIQMTQSPASLSVSVGETVTITCRASENIYSNLAWYQQKQGKSPQLLVHAATNLADGVPSRFSGSGSGTQYSLKINSLQSEDFGSYYCQHFWGTPRTFGGGTKLEIKRADAAPTVSIFPPSSEQLTSGGASVVCFLNNFYPKDINVKWKIDGSERQNGVLNSWTDQDSKDSTYSMSSTLTLTKDEYERHNSYTCEATHKTSTSPIVKSFNRNEC
notes: Mouse IgG2a; Used as hybridoma supernatant or as purified recombinant antibody; also called CXIIG6 hybridoma supernatant; CXIIG6 SN
B2: no binding [2].

B3: H19K12 (antibody, V domains shown)
VH: EVQLVESGGGLVQPGGSLKLSCAASGFTFSDAWMDWVRQSPEMGLEWVAEIRSKANNHATFYAESVKGRFTISRDDSKSSVYLQMNSLRAEDTGIYYCTRVKVGFDNWGQGTTLTVSS
VL: DIQMTQSPSSLSASVGDRVTITCRASENIYSNLAWYQQKDGKSPQLLVHAATNLADGVPSRFSGSGSGTQYSLTISSLQPEDFGSYYCQHFWGTPRTFGGGTKLEIKR
notes: Humanized human IgG1/kappa; also called hCXIIG6 variant H19K12
B3: no binding (tested: 500 ng/ml) [3]; no binding (tested: 500 ng/ml) [4]; no binding (tested: 500 ng/ml) [5]. B3: no binding (tested: 500 ng/ml) [6]; no binding (tested: 500 ng/ml) [7]; no binding (tested: 500 ng/ml) [8]. For the same binder, the IC50 [9] was 1.28 nM and the Ki [10] was 0.754 nM.

B4: Chimeric CXIIG6 IgG1 (antibody)
heavy: not shown
light: DIQMTQSPASLSVSVGETVTITCRASENIYSNLAWYQQKQGKSPQLLVHAATNLADGVPSRFSGSGSGTQYSLKINSLQSEDFGSYYCQHFWGTPRTFGGGTKLEIKRTVAAPSVFIFPPSDEQLKSGTASVVCLLNNFYPREAKVQWKVDNALQSGNSQESVTEQDSKDSTYSLSSTLTLSKADYEKHKVYACEVTHQGLSSPVTKSFNRGEC
B4 was tested, and the IC50 [9] was 1.48 nM, the Ki [10] was 0.874 nM and the binding result [11] was “binds”. B4: binds [12]; no binding [13].
